# Test results taken from the DeepSol protein solubility set.
# Assay: soluble on expression in E. coli; label from the status in PepcDB or PDB records
row,Sequence,soluble on expression in E. coli
1,MSLATQAVSLARVRGPLALAALTLLGACSTRTAVPTPAPVAGSPSVAPESPRPPEVASGYRTGMTTAYAEQHMAAAANPLAAEAGRRILRQGGSAIDAAIAMQAVLTLVEPQASGIGGGAFLLYWDGKRVQAYDGWETAPAGADENLFLRPDGTSMGLSEARIGGRAVGVPGVLRALELAHRRYGKLPWTRLLQPAVELAEQGFPVSPRLYTQIAADPFIAGSPEMAAYFLTPQGKPKPVGTIVRNPQLAQTLREIARHGPGAFYAGPIAADIVKRVSGGANPGTLSLADLRGYRAKERDPICADYQRWKVCGMPPPSSGGIAIAQMLGTLQALAARDPKYALAAMAPRETTRAAGLEPSVDAVHVVSEAGRQADADRGLYVADADFVPVNVKGLTDPGYLTLRAGLIGDRSTGRADPGTPPGTSIALAPDRSPPRVSTSQIVAVDNAGGAVSMTTAIDSDFGAHLMVRGFVLNSGLTDFSFVPNDGGKPVANRVQAGKRPRSSMAPTLVFERDSGRLVAALGSPGGSQSIEYVSKTLIGLLDWDMDVQSAINLPNFGSRNGPTEVERGLVTQPLVQGLKARGHDVAQIEMTSGTQAIVRRRRDDGRWGWAGGADPRREGVALGDEGHHHHHH,not soluble
2,MSLVNMEFLKRSFAPLTEKQWQEIDNRAREIFKTQLYGRKFVDVEGPYGWEYAAHPLGEVEVLSDENEVVKWGLRKSLPLIELRATFTLDLWELDNLERGKPNVDLSSLEETVRKVAEFEDEVIFRGCEKSGVKGLLSFEERKIECGSTPKDLLEAIVRALSIFSKDGIEGPYTLVINTDRWINFLKEEAGHYPLEKRVEECLRGGKIITTPRIEDALVVSERGGDFKLILGQDLSIGYEDREKDAVRLFITETFTSRLSTRRPEGHHHHHH,soluble
3,MLYALLLLFGGVSTVSSLRVAVVGEGVIGLSTATAILDLAEKRNIPAPEIHIFHHKPFEKILSRHIAGLFRIDSGSEIDRKYGYDTFEKLATLWREYGGLSGVQLVSGHILSDSKTKLDSQRESYGSLVYNYRDLAEPELFGPTSLFDLPRNTTTRGIHYTAYTSEGLRFCPFLKKELMTKGVRFTQRRIGNLEELGAEFDVVVNSAGLLGGVLAGDDAGNMKPIRGVLIRVDAPWQKHFLYRDFSTITIPVIDHVYMGTVKQEGAFGPNNVTSADIQDITSRYVALQPSFKRVHMLSSFVGYRPGRKQVRVEKQIRETNGSKKFTVVHNYGHSGNGFTLGYGSAVHAAHIVLDLPLDAYHGLVPEPLPINATISEWVKYLDD,not soluble
4,MLYREHHSWIYTWLYRRLGNSADAADLAQDTFIRVITRKSLLEIEQPRAYLTTVAKSLMLNWFNRRNIEQAYLEVLANQPEFEHPSPEQRYLIVETLIEVIQLLDTLPDQIRDVFLHAQLENMNYQQIADQFNLSLSTVKRHIKKAYIHCLTAMLDTDFSC,not soluble
5,MGSDKIHHHHHHMLKLDKIQANKIVEKLMADIPYNINIMDERGKIIASGDSARIGERHRGAERAINERKNIEIYKDTSLEKKGTNEPIILNNHILGVVGISGEPDEVRKFTKLVRSIVLLLTEELNTQQEREKKKKQKNQFIQHLMHVDSSYSEALKLEALELYNLQLDDQNHCVLTKDKRLLSSYYPGHEIFEWENCYLVITSEPPQITKPVTEYLVISSEKATIQQMVQEAQNTYLLLSFLQLEKAKFYQAEDFFIQGIFNFPFHIELDFFETIQTIYDEYYETVIFFANHNLNINETSQVLHIHRNTLNYRLKRIHELTGMDPKVWQDFWKLFYYFAYCFKERFEK,not soluble
6,MSKGFAFKPSALAAKADKLWSDSKTEYTATHSTINHVHLEKKSLGDIIPKSADAPVANEKEVEEAPQAFVFGSKISDRVVNKEGDSTKPGGSDEKTMTATELFQNAVKKDDDKNGAKNFRKEAEQEAERAKEAEKQHAGTSSVEITTGEENDTNIFQAPCKIWAFDKLKNAYSEKGVCNLRINKRVENGLTHHRIVARTSSGTLRVIINSKIFSDMLLERVDKRIRISAMGPEISGVQIFLLKIGFTKTETIPDSDIFYNIMSDLLKLEKGENSRKRKADCDLNASTVKIKDGKEEEEGDQDQVDEGFVIVNKPTEDEVKEEKPAVTAAEESASSSTPSE,not soluble
7,MGSDKIHHHHHHMKLSVKIAGVLTVAAAAMTAKMYATAKGNHLKTHTFPLSKMKGKPPLTIFFISDIHKRLIDQDLLEKARSHAPHLVIIGGDLAEGGVPSARIEENIKRLVHFGVPIVFVWGNNDYEVRQHKLYSIFKAHGVITLRNESVPFSYNGHTIAIAGVDDIRMEMDHYEEAIKELDESQLNILVCHNPEIHEQINEDDGIDVILSGHTHGGQIRFGKFGPYELGKTGIVKNAAYLISNGYGTTKVPLRLGAEPETHIVTLCGPE,not soluble
8,MAHHHHHHMPLCASIPATVDTDTNTRALYLDDLDKCMKNFSSALASTMNAYQNLLTAFDQVAQVYGNVAQECGDEVRKPVGEFRDGMRDLKDKGGFETFNHEIHVGTIAVIEPVKSDLKKALKSLKCLRLKQKEYDAVRYDLEQTEKSYAKKNKPLVTSSSYKKTLAKRDKVKTSYDASREAFGEEINALQATTKSVLLQSLNNYLHCTAAFCGQLEATMNGYRTDVDHHGSTTFTNDQMDKLKEKAEAESMARRAKRKSEASNPFQTGYDVTSNNSHRNLPSVDDGLYQKKDSLVDTESVNRYPNAEFAPPMQNGGDDNFTLREQYDDGAPGDADDVNPLVDANNDE,soluble
9,DGVRIFNSLAATVYADSTAAHADMQGRRLKAVSDGLDHNGTGLRVIAQTQQDGGTWEQGGVEGKMRGSTQTVGIAAKTGENTTAAATLGMGRSTWSENSANAKTDSISLFAGIRHDAGDIGYLKGLFSYGRYKNSISRSTGADEHAEGSVNGTLMQLGALGGVNVPFAATGDLTVEGGLRYDLLKQDAFAEKGSALGWSGNSLTEGTLVGLAGLKLSQPLSDKAVLFATAGVERDLNGRDYTVTGGFTGATAATGKTGARNMPHTRLVAGLGADVEFGNGWNGLARYSYAGSKQYGNHSGRVGVGYRF,soluble
10,LKEDKEKYPIFVFIHKDKVTISIDTTGDALHKRGYREKANKAPIRETLAAGLIYLTPWKAGRVLVDPMCGSGTILIEAAMIGINMAPGLNREFISEKWRTLDKKIWWDVRKDAFNKIDNESKFKIYGYDIDEESIDIARENAEIAGVDEYIEFNVGDATQFKSEDEFGFIITNPPYGERLEDKDSVKQLYKELGYAFRKLKNWSYYLITSYEDFEYEFGQKADKKRKLYNGMLKTNFFQYPGPKPPRNNK,not soluble
11,MVRDMRFCYRCGISEEEGGPLINGLCQVCFRKENPVLLLPSEINTELCQNCGSYKKRGVWVDPKNYELEALIFEVAENALLEALEDNLKVKDFEVVNWEELDEISEIPVGKAFVAYRVVDYHIEYFPAIVIYEVRSKARIHELQVEPHDERTTVTVYVRQTVCPRCQKFLAGYYEAILQVRVEGREFTKEEREEITKLVQEKVDEIMKRDRMGFIQDTIEKEEGIDFYMGSTSAARKLANAIREKYGGTISEAYELVGMDRQTSREVYRTSVTVRLPKFRKGDVVEDRYGRVYEVEEVNGKGMRLKNLETWKSEHYDWKTIKRERVDLANYEEKKAMLVSKTPSEVQFMDMETYETFEVKKPTDELKEGEVYTVVRVKGRMYVKEEVKELEHHHHHH,soluble
12,MRQIFPGLDPNTYVQHPLHSSERMWPETNCYIDLWIEVLASKGLSPEAMFGFTLTQDFEGDQFTFFKVPLEDLEALYGVRATELAIFDKVEDHIATQLERGRICLIEMDSFYMPDTHGVGYQKEHGKTTVAINRLDLEKRELDYFHNAGFFHLSGEDFDGLFQHHLAETDPPFLPYTEFAKFADSNPSPAHIRKTAERLLKFHFSRRPSANPVRAFAKVFPAQVEKVADRPFGFFHKYAFNTLRQLGANFELAASHLEWLDKQGFSDARDHALKISEVAKTVQFQLARAVTRRKFDALATVLDPAADAWDGLMESLGEKLSDASEAA,soluble
13,MPDADVNDFELVDVDQKAADKAIKDLGVKATIDEVCTVGEEGYVVTATDKEGYGGDIKITVGITADGTINGISILSISETAGLGMRATEPAFYEQYQGKQAEKFVVSKDGGDGEPIDALSGATITSRAVTGAVNAALGYYQNAFLEHHHHHH,soluble
14,MSVIIISRNQEKLDRAAKKIELNTGGKVKVIAADFTKDDIYGHITENIEGLDIGVLVNNVGILPSQIPCKLLETSDLEERIYDIVNCNVKSMVKMCRIVLPGMQQRRRGVILNVSSGIAKIPCPIYTLYAASKVFVERFSQGLQAEYISKGIIIQTVAPFGVSTAMTGHQKPDMVTFTAEEFVRSSLKYLKTGDQTYGSITHTLLGRIVQSIPTWVLQSETFQHHFQEYVKNRDRR,not soluble
